Values of other authors in paper PMC4134560.
pKd: −log10 of the molar value.

Molecular target: p53 (Homo sapiens) (UniProt P04637)
Settings: cited from earlier work

For p53 (from UniProt P04637), the pKd is listed as > 6.00.
